From patent US20060177448A1, “Inhibiting HER2 shedding with matrix metalloprotease antagonists” (Genentech, Inc., priority 2005, published 2006) come the findings set out here.

The experiment has as its system SKBR-3 cells. Kind of experiment: HER2 ECD ELISA of conditioned media (HER2 shedding), SKBR-3 cells. The following applies: 1 μg/ml. In kind it is cell-based, human. In general terms: ELISA stands for enzyme-linked immunosorbent assay.

Procedure: BT 474, MCF-7, and SKBR-3 cells were maintained in high-glucose DMEM:Ham's F12 (50:50) supplemented with 10% heat-inactivated FBS and 2 mM L-Glutamine. […] Cell lines were maintained at 37° C. in a humidified incubator supplied with 5% CO2. BT 474 and SKBR-3 cells were transiently transfected with constructs as described by electroporation using kit V according to the manufacturer's instructions (AMAXA™).
Serum was diluted 1:50 using assay buffer (PBS/0.5% BSA, 0.05% TWEEN® 20/10 ppm PROCLIN® 300/0.2% BGG/0.25% CHAPS/0.15 M NaCl/5mM EDTA (pH 7.4) followed by additional 1:2 serial dilutions. Shed HER2 was captured using a goat anti-HER2 polyclonal antibody (Genentech) onto NUNC® Maxisorp plates and detected using a biotin-conjugated rabbit anti-HER2 polyclonal antibody (Genentech) followed by a AMDEX™-strepavidin-horseradish peroxidase antibody (Amersham Pharmacia Biotech) following a procedure described previously (Sias et al., J. Immunol. Meth. 109:219-27 (1990)). For cell culture experiments, cells were treated as indicated and conditioned media was collected and diluted in assay buffer serially 1:2. The concentration of shed HER2 in serum or in conditioned media was determined from a four-parameter fit of a standard curve using purified recombinant HER2 ECD protein (Genentech) as a standard.
The pSIREN shRNA construct(s) or vector alone were transiently transfected into SKBR-3 and BT 474 cells using AMAXA™ kit V following manufacturer's recommendations. After 48 hours, conditioned media was collected and assayed for shed HER2 by HER2 ELISA and the cells were lysed directly on the plate using 2×Sample buffer.

B1: Timp-3: naturally occurring peptides that regulate metalloprotease activity (protein, UniProt P35625 24-211, looked up)
Metalloproteinase inhibitor 3: CTCSPSHPQDAFCNSDIVIRAKVVGKKLVKEGPFGTLVYTIKQMKMYRGFTKMPHVQYIHTEASESLCGLKLEVNKYQYLLTGRVYDGKMYTGLCNFVERWDQLTLSQRKGLNYRYHLGCNCKIKSCYYLPCFVTSKNECLWTDMLSNFGYPGYQSKHYACIRQKGGYCSWYRGWAPPDKSIINATDP
Regarding B1, the “HER2 ECD levels in conditioned media” value is on record as “reduced HER2 ECD levels”.
